Reference: publication PMC13500710
Where a chain is given by its changes, count along the chain named. Where two headings read alike, the source gives them in different places.

T1: ORC1 BAH domain (Homo sapiens, UniProt Q13415 1-200)
T1 sequence: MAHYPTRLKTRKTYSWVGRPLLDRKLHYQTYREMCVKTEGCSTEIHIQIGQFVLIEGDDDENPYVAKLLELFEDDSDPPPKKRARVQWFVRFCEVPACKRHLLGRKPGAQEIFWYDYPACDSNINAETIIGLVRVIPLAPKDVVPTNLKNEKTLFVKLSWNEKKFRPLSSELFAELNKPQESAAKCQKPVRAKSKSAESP

T2: ORC1 mutant (EYYE) (Homo sapiens, UniProt Q13415 1-861, R297E;S450Y;T593Y;R846E)
T2 sequence: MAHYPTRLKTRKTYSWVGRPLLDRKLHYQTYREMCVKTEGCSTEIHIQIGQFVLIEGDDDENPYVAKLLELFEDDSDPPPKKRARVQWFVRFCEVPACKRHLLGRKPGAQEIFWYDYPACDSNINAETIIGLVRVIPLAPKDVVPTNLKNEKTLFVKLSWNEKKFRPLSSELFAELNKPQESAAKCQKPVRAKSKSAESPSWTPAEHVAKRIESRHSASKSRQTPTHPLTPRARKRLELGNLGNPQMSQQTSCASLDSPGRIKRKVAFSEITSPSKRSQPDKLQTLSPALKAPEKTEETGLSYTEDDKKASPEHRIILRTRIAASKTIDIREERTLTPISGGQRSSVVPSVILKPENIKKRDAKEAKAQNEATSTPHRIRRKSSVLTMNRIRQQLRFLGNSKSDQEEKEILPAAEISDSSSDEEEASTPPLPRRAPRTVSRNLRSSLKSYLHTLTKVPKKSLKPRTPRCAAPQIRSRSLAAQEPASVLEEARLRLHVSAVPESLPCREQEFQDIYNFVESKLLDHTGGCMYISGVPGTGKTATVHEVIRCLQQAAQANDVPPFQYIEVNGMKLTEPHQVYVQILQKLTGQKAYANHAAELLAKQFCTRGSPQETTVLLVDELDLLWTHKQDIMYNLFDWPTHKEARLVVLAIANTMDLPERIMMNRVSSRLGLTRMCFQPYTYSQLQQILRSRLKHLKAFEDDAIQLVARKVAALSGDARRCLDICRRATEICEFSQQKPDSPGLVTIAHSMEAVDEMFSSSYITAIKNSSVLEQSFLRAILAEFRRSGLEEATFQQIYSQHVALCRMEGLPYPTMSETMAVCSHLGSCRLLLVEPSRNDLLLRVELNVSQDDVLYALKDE

T3: ORC1 WHD (Homo sapiens, UniProt Q13415 783-861)
T3 sequence: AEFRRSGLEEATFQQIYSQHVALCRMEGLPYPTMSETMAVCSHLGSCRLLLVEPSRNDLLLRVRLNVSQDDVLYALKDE

T4: ORC1 full length (Homo sapiens, UniProt Q13415 1-861)
T4 sequence: T2 sequence with E297R, Y450S, Y593T, E846R


Key:
Assay in all cases: EMSA
ORC1 BAH domain = molecular target: T1, ORC1 BAH domain
ORC1 mutant (EYYE) = molecular target: T2, ORC1 mutant (EYYE)
ORC1 WHD = molecular target: T3, ORC1 WHD
ORC1 full length [1] = molecular target: T4, ORC1 full length
ORC1 full length [2] = molecular target: T4, ORC1 full length; remark: listed apart in the source
ORC1 full length [3] = molecular target: T4, ORC1 full length; remark: listed apart in the source

Row | Binder | binding result (ORC1 full length [1]) | binding result (ORC1 full length [3]) | further results
1 | GAGAACGCACUGCGCGCCCACCGCCACGCCACGCGCGUAC (ssRNA) [RM9, biotinylated] | – | – | binding result (ORC1 BAH domain): no binding; binding result (ORC1 mutant (EYYE)): no binding; binding result (ORC1 WHD): no binding
2 | CAGCCGCCCACUUUUGACAGGCCUGGGCGGGCUUCGCUUA (ssRNA) [MYC1, 32P] | no binding | – | –
3 | CAGCCGCCCACUUUUGACAGGCCUGGGCGGGCUUCGCUUA (ssRNA) [MYC1, biotinylated] | – | – | binding result (ORC1 full length [2]): no binding
4 | GTACGCGCGTGGCGTGGCGGTGGGCGCGCAGTGCGTTCTC (ssDNA) [dRM9] | no binding | – | –
5 | GAUGGGAGGAAACGCUAAAGCCCAAGGUUUCAGAGGUGAU (ssRNA) [MYC3] | – | no binding | –
6 | GAGCUCCCAAAUCUCUCCAGAUCUGCUAUCUCUCCUUCCU (ssRNA) [MYC2] | – | no binding | –
